Experiment [1] concerns the target salt stripped chicken erythrocyte mononucleosomes (chicken (endogenous in erythrocytes)). The experiment is described as follows: native gel or EMSA.
For experiment [2], the target named is HMGN1 (UniProt P05114). Kind of experiment: co-IP.
Experiment [3] deals with HMGN2 (UniProt P05204). The experiment is described as follows: co-IP.

Consider “HMGN2 (from UniProt P05204 1-90) (natural protein)”, for which the H3K27ac level in HA complexes over LA MNs (dot blot) in experiment [1] was found to be 1.5 times.

In the case of “salt-stripped oligonucleosomes from mouse embryonic fibroblasts (complex)”, the H3K27ac level in HMGN-bound ON over input ON (dot blot) in experiment [2] and in experiment [3] was > 3 fold throughout. In addition, in experiment [2], the H3K27ac signal in HMGN1-bound over input nucleosomes (Western) amounted to 2.7 fold.

B1: HMGN1 (natural protein)
chain: MPKRKVSSAEGAAKEEPKRRSARLSAKPPAKVEAKPKKAAAKDKSSDKKVQTKGKRGAKGKQAEVANQETKEDLPAENGETKTEESPASDEAGEKEAKSD
On to B1, for which, in experiment [1], the H3K27ac level in HA complexes over LA MNs (dot blot) was 1.5 times, the H3K27ac level in HA over LA fraction (Western) turned out to be 2 fold, the percent of total MNs not shifted (LA fraction) at HMGN:MN ratio 2.0 worked out at 12% and the percent of total MNs shifted (HA fraction) at HMGN1:MN ratio 0.2 was found to be 9%.

For the origin of these results see paper doi:10.1101/2021.05.03.442466.
